B1: TRL854 (antibody, V domains shown)
VH: QVQLVESGAEVKKPGASVRVSCKGSGYTFTAYHMHWVRQAPGQGFEWVGWINPNSGATYYTSTFEGRVTMTRDTSITTAYMELSSLRSDDTAVYYCATDIVVERDASLGGFNSYGMDVWGQGTTVTVSS
VL: DIEMTQSPLSLPVTPGEPASISCRSSQSLLHSNGYNHLAWYLQKPGRSPHLLIYLASTRASGVPDRFSGSGSGTDFTLKISRVEAEDVGIYYCMQSLQTSITFGQGTRLEIK
B2: TRL847 (antibody, V domains shown)
VH: QVQLVESGGGLVQPGGSLRLSCVASGFTFSRFSMNWVRQAPGMGLEWVSYISDTGRTIYYADSVKGRFTISRDNDKNTLYLQMKSLRDEDSAFYYCARDPDTPFVRAFDSWGQGVLVTVSS
VL: DIVMTQSPSFLSASVGDRVTITCRTSQVISSYLAWYQQRPGKAPKLLIYAASTLQSGVPSRFSGSGSGTRFSLTISNLQPEDFATYFCQQLTTYPPITFGQGTRLEIK
B3: TRL848 (antibody, V domains shown)
VH: QVQLLESGGDVVQPGTSLRLSCAASGFSLWTSGMHWVRQAPGKGLEWVAVMSYDETKKYYADSVRGRFSISRDNSRNTLYLQMNSLRVEDTAVYFCAKPRLDYLDYFHAADSWGQGTLVSVSS
VL: DIVLTQPPSVSVAPGQTATITCGGNYIGSKSVNWYQQRPGHAPVLVVYDDSDRPSGIPDRFSGSNSRSTATTATLTISRVEAGDEADYYCQVWETSEDLWVFGGGTKLTVL

Target: biotinylated HA antigen of B/Florida/04/2006 (influenza B virus B/Florida/04/2006, biotin (site not stated))
Experiment: BLI

Binder	Kd [nM]
B1	8.8
B2	0.7
B3	1.7

Source: PMC5923107 (2018)
